In patent publication US9827288B2, “Method for treating a refractory or relapsed lung cancer” (MYCOMAGIC BIOTECHNOLOGY CO., LTD., priority 2015, dated 2017):

B1: GMI: recombinant immunomodulatory protein derived from Ganoderma microsporum, manufactured by Mycomagic Biotechnology per U.S. Pat. No. 7,601,808 (protein)
chain: EAEAEFMSDTALIFTLAWNVKQLAFDYTPNWGRGRPSSFIDTVTFPTVLTDKAYTYRVVVSGKDLGVRPSYAVESDGSQKINFLEYNSGYGIADTNTIQVYVIDPDTGNNFIVAQWNYLEQKLISEEDLNSAVDHHHHHH
modifications: Ganoderma microsporum (GMI) or a recombinant thereof (reGMI)
B2: rLZ-8: his-tagged recombinant fungal immunomodulatory protein LZ-8 from Ganoderma lucidum (SEQ ID NO:5) (protein, listed as Ganoderma lucidum)
chain: MSDTALIFRLAWDVKKLSFDYTPNWGRGNPNNFIDTVTTFPKVLTDKAYTYRVAVSGRNLGVKPSYAVESDGSQKVNFLEYNSGYGIADTNTIQVFVVDPDTNNDFIIAQWN
modifications: His tag

What was measured:
[1] = test system: LLC1 cells; experiment: Tumor growth in LLC1 allograft mice; format: in vivo; details: vs PBS
Procedure: Male C57BL/6 (6-8 weeks of age) mice were subcutaneously inoculated with LLC1 cells and randomly divided into two groups. Seven days after implantation, the mice were treated with GMI (5 mg/kg) via i.p. injections at intervals of 4 days. The control group received an equal volume of sterile PBS.
The mice will be weighed and randomly distributed across the different experimental groups (n=5). At day 0, approximately 2×10^5 lung cancer cells suspended in 100 μl serum free DMEM will be subcutaneously (s.c.) implanted into the right flank of all mice for easy observed detection. The mice were sacrificed on the 25th day and the tumors were then excised. […] Tumor size was measured (FIG. 1A) for each mouse using a set of digital calipers at 4 days, and the tumor volume was calculated by the formula L1×L2×H, where L1 is long diameter, L2 is the short diameter and H is the height of the tumor. Representative images of the tumors on the 25th day (FIG. 1B).
We further examined the effect of rLZ-8 on mice with LLC1-allograft in vivo. LLC1 cells were subcutaneously injected into male C57BL6 mice, and the tumor growth rate was assessed over 17 days.

[2] = test system: EGFR; experiment: Western blot of EGFR level in H1975 cells; format: cell-based, human
Procedure: Knocking down of EGFR by EGFR siRNA activated activity of caspase3/7, resulting in apoptosis in gefitinib-resistant H1975 cells (Chen G et al., BMC Med. 2012; 10:28). To investigate the apoptosis, human H1975 cells were seed in 60-mm plat-dish and incubated with rLZ-8 (5 μg/ml) and GMI (10 μg/ml) for 48 hours and 72 hours, respectively.

[3] = molecular target: T1, EGFR (Homo sapiens, UniProt P00533); experiment: Western blotting to detect expression of EGFR in CL1-5 and H226 cells; format: cell-based; design: endogenous in cells; host or cells: CL1-5 and H226 cells; details: 5 μg/ml for CL1-5 and 10 μg/ml for H226, 0-12 h
Procedure: CL1-5 and H226 cells were incubated with rLZ-8 and GMI (5 μg/ml for CL1-5 and 10 μg/ml for H226) for 0-12 h followed by western blotting to detect expression of EGFR. […] The regulatory mechanisms of ligand-induced EGFR degradation dependent on endocytosis (Hicke L., FASEB J. 1997; 11:1215-26.). To investigate whether rLZ-8-induced EGFR degradation by inducing endocytosis, we performed depletion of clathrin heavy chain experiments in NSCLC cells. Using clathrin heavy chain shRNAs such as #2755 (sh-S1), #2757 (sh-S2) and #7981 (sh-S3), we confirm the efficacy of clathrin shRNAs, and we found (via Western blot analysis) that clathrin knockdown leads to a reduction in the overall protein levels of clathrin in CL1-5 and H226 cells (FIG. 4B). Next, we examined whether the rLZ-8-induced EGFR degradation dependent on clathrin-mediated endocytosis in NSCLC cells.

[4] = molecular target: T1, EGFR; experiment: Co-localization with EGFR by fluorescence microscopy; format: cell-based; design: endogenous in cells; host or cells: CL1-5 and H226 cells; details: H226 cells
Procedure: (§1) Science the downregulation of EGFR by rLZ-8 and GMI may involve an intracellular pathway similar to that induced by EGF-mediated EGFR endocytosis and degradation, we hypothesized that rLZ-8 and GMI could interact with EGFR. The co-locolization of rLZ-8/GMI and EGFR were determined by fluorescence microscopy. […] To further examine the association of rLZ-8 and EGFR, immunoprecipitation assay was performed by anti-EGFR and anti-his-tag (for detecting rLZ-8) antibody.

[5] = molecular target: T1, EGFR; experiment: Immunoprecipitation assay with anti-EGFR and anti-his-tag antibody; format: binding; design: After treatment of rLZ-8 in A549; endogenous in cells; host or cells: A549 cells; details: A549 cells treated with rLZ-8
Procedure: as §1

Molecule	tumor volume ([1]; LLC1-bearing male C57BL/6 mice, GMI 5 mg/kg i.p. at intervals of 4 days from day 7, to 25th day)	EGFR level ([2]; GMI 10 μg/ml, 72 hours)	EGFR protein levels [3]	tumor volume ([1]; LLC1-bearing male C57BL6 mice, rLZ-8 7.5 mg/kg, over 17 days)	tumor weight ([1]; LLC1-bearing male C57BL6 mice, rLZ-8 7.5 mg/kg)	EGFR level ([2]; rLZ-8 5 μg/ml, 48 hours)	co-localization with EGFR [4]	association with EGFR (immunoprecipitation) [5]
B1	significantly decreases tumor volume	induced downregulation of EGFR level	significantly suppressed the EGFR protein levels					
B2			significantly suppressed the EGFR protein levels	significantly decreases tumor volume	significantly decreases	induced downregulation of EGFR level	mainly co-localized on the plasma membrane and formed the punctuate intracellular clusters in the cytoplasm	present in the immunoprecipitants obtained by the anti-EGFR antibody
